The supplement of paper PMC10724198
± gives the standard deviation of the averaged measurements.

Each sequence was assayed on Saccharomyces cerevisiae (assay: protein stability index of tFT-peptide fusion (C-terminal peptide) (PSI (0-1 scale)); higher = more stable (slower turnover)). Details: genetic background: wild type; temperature: 30 C.
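Further: PSI is a weighted mean of sequencing reads over stability bins, variants kept only with over 10 reads, mCherry proximal and sfGFP distal, peptide attached via GGGS linker.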

In order of falling protein stability index:
1. LPPSPHPPLPHL  0.886 ± 0.011
2. LPVRLPVSGSSS  0.8296 ± 0.0057
3. LPPQRPSQYLLH  0.786 ± 0.11
4. LPRPPPTSSTPL  0.784 ± 0.16
5. LMRGLYAIPGKF  0.776 ± 0.019
6. LRAWWTPRRGRW  0.769 ± 0.052
7. LPSLSPPPSLPL  0.763 ± 0.042
8. LPSLPPRTSPPS  0.761 ± 0.027
9. LPCRRPTPPFPQ  0.752 ± 0.024
10. LPLRAHPTISFP  0.751 ± 0.05
11. LLRLTGRRHVGG  0.748 ± 0.2
12. LLPSLFLLPPSA  0.743 ± 0.094
13. LPAAPPPPPLPP  0.742 ± 0.042
14. LPHPPPLPTPPP  0.739 ± 0.13
15. LPPPPRPPLPSP  0.737 ± 0.068
16. LPSPYPMPPPLP  0.736 ± 0.018
17. LPSPLPPPAWTP  0.735 ± 0.029
18. LPPHPPPCPPLL  0.733 ± 0.088
19. LPSPTTPRSPPP  0.729 ± 0.1
20. LQAALVFPRSSL  0.7225 ± 0.00052
21. LPAWSYPSGWLL  0.718 ± 0.044
22. LPPPGSSPRATS  0.718 ± 0.06
23. LPPTPPLPRSLP  0.716 ± 0.066
24. LQRPDHPTPTPP  0.712 ± 0.017
25. LPVPLAAFTTLH  0.711 ± 0.084
26. LPSPLPPPPPAH  0.707 ± 0.0082
27. LPATLPPPPAPP  0.705 ± 0.036
28. LQPLPPYHSIQL  0.703 ± 0.012
29. LLRPLSPIDVLR  0.702 ± 0.069
30. LRGGGKRREVMG  0.702 ± 0.099
31. LPNTWLTSLIHQ  0.701 ± 0.33
32. LPPTSPPPSSPP  0.7007 ± 0.0041
33. LPFPLGDSRGSC  0.697 ± 0.011
34. LLRPYYHILVPL  0.695 ± 0.0024
35. LPSGVPPPPPLP  0.695 ± 0.063
36. LRGVGAGPEDVG  0.694 ± 0.017
37. LPGKVGNAPFDQ  0.6913 ± 0.0062
38. LPPPPIAPPLTP  0.689 ± 0.063
39. LPPLPPLPPPPH  0.686 ± 0.076
40. LPLPHPRLPPRP  0.684 ± 0.049
41. LRKCVKAECKSQ  0.684 ± 0.037
42. LPLLALLDVPLP  0.683 ± 0.018
43. LPPAPPLPPPPT  0.683 ± 0.044
44. LPRLPVSPLPLP  0.681 ± 0.057
45. LPPPLPVRSPLF  0.68 ± 0.012
46. LLPSPRSSPPPS  0.675 ± 0.091
47. LPPPLPPLLPLP  0.675 ± 0.014
48. LPPLPPPPLLFP  0.674 ± 0.002
49. LNLTAPPPPHLV  0.6721 ± 0.0066
50. LPSPPPRPPHHR  0.672 ± 0.025
51. LPSLRFLFPLVP  0.671 ± 0.036
52. LRCLLAHIAGRG  0.67065 ± 0.00044
53. LPPARRHPSVYR  0.669 ± 0.064
54. LPPPSPSPLFPP  0.669 ± 0.052
55. LLRSCLTLFARR  0.668 ± 0.021
56. LLRRFSLLPPPL  0.667 ± 0.035
57. LLSPAPPLPPAP  0.666 ± 0.057
58. LPRRDPGPSKEP  0.66644 ± 0.00038
59. LPSPPPPRSLLP  0.6657 ± 0.0016
60. LPFPPPIIATPP  0.665 ± 0.13
61. LPVLPPLSPSPF  0.665 ± 0.011
62. LRFRTNYFFSRV  0.665 ± 0.063
63. LPFLVSPPLFRT  0.664 ± 0.063
64. LLSGRDAACRGG  0.663 ± 0.027
65. LLRVPPGPIFPS  0.661 ± 0.064
66. LPGAEASRCTST  0.657 ± 0.041
67. LPSSLFLCSLFC  0.655 ± 0.026
68. LPPRSRHPSPYA  0.654 ± 0.016
69. LRECRSWGGAAG  0.653 ± 0.029
70. LQSLRSEVIHSL  0.651 ± 0.095
71. LRGFGLGLRFFF  0.65 ± 0.013
72. LRCSKRNKSMGQ  0.648 ± 0.048
73. LRHVARCARGGA  0.647 ± 0.095
74. LMGGMIRDMVWG  0.643 ± 0.13
75. LPHVALFLLPAL  0.638 ± 0.0064
76. LPPSPLALVSSS  0.637 ± 0.021
77. LPASPSIAPPPT  0.636 ± 0.06
78. LNLRTFATFFRY  0.635 ± 0.077
79. LRCLFAWVCECG  0.635 ± 0.083
80. LPFPSPSPPFPF  0.63 ± 0.094
81. LPRAAISRKFAT  0.63 ± 0.037
82. LPPLPLPPAPSA  0.621 ± 0.042
83. LMVGFRSFNVKC  0.618 ± 0.051
84. LLQRFTTVPTLL  0.616 ± 0.083
85. LPLPTSPHPRPA  0.61 ± 0.046
86. LLSCLDILFFFI  0.609 ± 0.016
87. LLSLLQLPASAS  0.605 ± 0.03
88. LNLWVVYRLLGV  0.599 ± 0.038
89. LNPPFICFAWLY  0.598 ± 0.076
90. LPPPAPSPAPPH  0.593 ± 0.12
91. LPPRPRPLPPSP  0.589 ± 0.0077
92. LPPPYSHTPPPR  0.581 ± 0.031
93. LQTLDVFTTMKL  0.58 ± 0.045
94. LLSLSCLPLHFR  0.574 ± 0.088
95. LLVVSIGSCFFG  0.572 ± 0.065
96. LPPLAYALLPPL  0.571 ± 0.028
97. LPCSTLPWAPLT  0.565 ± 0.023
98. LPRPLTIKQVAG  0.56 ± 0.021
99. LRGSCFSLWLVF  0.526 ± 0.031
100. LPCCYVWFFLSL  0.499 ± 0.023
101. LPPLAPASHHLC  0.493 ± 0.016
